Numbering of substitutions follows the chain as printed. Numbers in names are those of the source. Where “and” joins values, the source holds several entries; their conditions need not be identical. Equal values may be shown once.
B1: YbiB Arg92Glu, N-terminally His6-tagged (natural protein, E. coli, UniProt P30177 1-320, looked up)
chain: MDYRKIIKEIGRGKNHARDLDRDTARGLYAHMLNGEVPDLELGGVLIALRIKGEGEAEMLGFYEAMQNHTIKLTPPAGKPMPIVIPSYNGAEKQANLTPLLAILLHKLGFPVVVHGVSEDPTRVLTETIFELMGITPTLHGGQAQAKLDEHQPVFMPVGAFCPPLEKQLAMRWRMGVRNSAHTLAKLATPFAEGEALRLSSVSHPEYIGRVAKFFSDIGGRALLMHGTEGEVYANPQRCPQINLIDREGMRVLYEKQDTAGSELLPQAKDPETTAQWIERCLAGSEPIPESLKIQMACCLVATGEAATISDGLARVNQAF
notes: no measurement of its oligomeric state is reported; also called YbiB R92E; pET28a-ybiBR92E; source: E. coli BL21 (DE3) pLysS, purified (HisTrap FF, Superdex 200); not shown: His6, N-terminal, kept
B2: YbiB Arg123Glu, N-terminally His6-tagged (natural protein, E. coli, UniProt P30177 1-320, looked up)
chain: B1 chain with E92R, R123E
notes: no measurement of its oligomeric state is reported; also called YbiB R123E; pET28a-ybiBR123E; source: E. coli BL21 (DE3) pLysS, purified (HisTrap FF, Superdex 200); not shown: His6, N-terminal, kept
B3: YbiB (E. coli TrpD2 protein), N-terminally His6-tagged, wild type (natural protein, UniProt P30177 1-320, looked up)
chain: B1 chain with E92R
notes: YbiB, TrpD2 family protein of Escherichia coli, open reading frame amplified from BW25113 genomic DNA; cloned in pET28a (NheI/EcoRI) behind His6 and a thrombin site; its numbers there are shifted by 1; No thrombin cleavage is described; also called YbiB WT; YbiB dimer; source: E. coli BL21 (DE3) pLysS, purified (HisTrap FF, Superdex 200); not shown: His6, N-terminal, kept
B4: ObgE C-terminal peptide4-AA (peptide)
peptide: LEEIAEEDDEDADDDADEDD
notes: free termini (H-...-OH); also called SBL-OBGE-06; source: synthetic peptide (in-house Fmoc SPPS, HPLC purified)
B5: full-length E. coli YbiB protein, N-terminally His6-tagged (natural protein, UniProt P30177 1-320, looked up)
chain: B1 chain with E92R
notes: homodimer; No cleavage of the His6-tag is told; the pull-down names the tag on the protein; also called YbiB WT; TrpD2 protein YbiB; source: E. coli BL21 (DE3) pLysS, purified (HisTrap, SEC); not shown: His6, N-terminal, kept
B6: ObgE C-terminal peptide4 (residues 361-380 of ObgE) (peptide)
peptide: LEEIAEEDDEDWDDDWDEDD
notes: residues 375-380 (DWDEDD) are resolved in the crystal structure; also called peptide4-WW; SBL-OBGE-03; source: synthetic peptide (Fmoc SPPS, HPLC purified)
B7: peptide4-AA (variant of ObgE peptide4 with both Trp residues substituted by Ala) (peptide, UniProt P42641 361-380, looked up)
peptide: LEEIAEEDDEDADDDADEDD
notes: source: synthetic peptide (Fmoc SPPS, HPLC purified)

Legend:
[1] = molecular target: T1, ObgE (E. coli Obg GTPase), N-terminally His6-tagged (E. coli, UniProt P42641 1-390); assay: ITC; MicroCal iTC200, 25°C, 20 mM HEPES pH 7.5, 150 mM NaCl, 5 mM MgCl2, 1 mM β-mercaptoethanol; ObgE or ObgE-derived peptide in the sample cell (50-75 µM), YbiB (WT or mutant) in the syringe (500 µM-1.4 mM); 'ligand in cell' function; biphasic isotherms fitted on a 'two sets of sites' model; subunit concentrations; parameters of each individual repeat; details: both partners purified
T1 construct: GTPase ObgE (Obg) of Escherichia coli, 390 residues; also called pET28a-obgE; source: E. coli BL21 (DE3) pLysS, purified (HisTrap FF, alkaline phosphatase treatment, Superdex 75), nucleotide-free; not shown: His6, N-terminal, kept

[2] = molecular target: B4; assay: as above; details: both partners purified
[3] = molecular target: B3; assay: as above; details: both partners purified
[4] = molecular target: T2, N-terminally His6-tagged ObgE protein (Escherichia coli Obg) (E. coli, UniProt P42641 1-390); assay: SEC-MALS; Superdex 200 5/150 GL increase; ObgE and YbiB alone at 1.5 mg/ml; YbiB and ObgE mixed 1:3 (20 and 60 μM); 20 mM HEPES pH 7.5, 150 mM NaCl, 5 mM MgCl2, 5% glycerol, 2 mM DTT; details: both partners purified
T2 construct: GTPase ObgE of Escherichia coli, whole protein, ORF in pET28a; monomer by SEC-MALS; nucleotide-free after alkaline phosphatase treatment; also called full-length ObgE; not shown: His6, N-terminal, kept

[5] = molecular target: the molecule itself; assay: as above
[6] = molecular target: T2, N-terminally His6-tagged ObgE protein …; assay: SEC-SAXS; pre-formed YbiB-ObgE complex (mixed 1:3, isolated on Superdex 200, 7.6 mg/ml); 20 mM HEPES pH 7.5, 150 mM NaCl, 5 mM MgCl2, 2 mM DTT, 5% glycerol; molar mass by Bayesian inference; details: both partners purified
[7] = molecular target: T2, N-terminally His6-tagged ObgE protein …; assay: ITC; YbiB in the syringe (500 μM to 1.4 mM) titrated into ObgE constructs or ObgE-derived peptides in the cell (50-75 μM); 25°C; 20 mM HEPES pH 7.5, 150 mM NaCl, 5 mM MgCl2, 1 mM β-mercaptoethanol; 'two sets of sites' model with 'ligand in cell' for biphasic isotherms; subunit concentrations; details: both partners purified
[8] = molecular target: B5; assay: as above; details: both partners purified

T2 sequence (P42641 whole entry): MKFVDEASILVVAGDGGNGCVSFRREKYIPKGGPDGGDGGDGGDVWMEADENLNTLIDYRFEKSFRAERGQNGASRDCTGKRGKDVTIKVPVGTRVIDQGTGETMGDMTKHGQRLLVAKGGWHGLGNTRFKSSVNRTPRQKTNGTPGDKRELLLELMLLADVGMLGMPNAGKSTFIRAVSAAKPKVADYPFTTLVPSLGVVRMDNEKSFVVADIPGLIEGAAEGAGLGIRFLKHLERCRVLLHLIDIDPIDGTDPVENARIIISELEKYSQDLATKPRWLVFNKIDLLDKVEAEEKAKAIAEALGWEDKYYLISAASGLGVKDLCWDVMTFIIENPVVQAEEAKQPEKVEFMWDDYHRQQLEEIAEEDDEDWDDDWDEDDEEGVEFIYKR
T1 sequence (P42641 whole entry): as above

## B1
[1]
  stoichiometry N: 0.71 and 0.94 and 1.29

## B2
[1]
  Kd: 5 µM and 4 µM and 10 µM
  stoichiometry N: 1.14 and 0.99

## B3
[2]
  stoichiometry N: 0.66 and 0.632 and 0.64

## B4
[3]
  Kd: 10 µM and 15 µM

## B5
[4]
  stoichiometry N: ~2 ObgE per YbiB dimer
[5]
  stoichiometry N: 2
[6]
  stoichiometry N: 2 ObgE per YbiB dimer
[7]
  KD of the first (high-affinity) binding event, two sets of sites: 0.022 ± 0.001 µM
  KD of the second (low-affinity) binding event, two sets of sites: 5 ± 1 µM

## B6
[8]
  binding result: binds

## B7
[8]
  Kd: ~10 µM

From publication PMC10123104, “YbiB: a novel interactor of the GTPase ObgE” (Nucleic Acids Research, 2023)
